Measurements taken from US20210079074A1 (Alector, published 2021).
Like-named read-outs stand apart in the source and are kept apart here.

T1: huMS4A4A-ECL2 free-peptide (human)
T1 construct: synthetic, free or BSA-conjugated, coated on the plate; also called human MS4A4A ECL2 peptide; huMS4A4A-ELC2 free-peptide
T1 peptide: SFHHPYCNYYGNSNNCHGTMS

T2: FcγRIIa receptor (H131 variant) (UniProt P12318 34-317, limits assumed)
T2 sequence (looked up): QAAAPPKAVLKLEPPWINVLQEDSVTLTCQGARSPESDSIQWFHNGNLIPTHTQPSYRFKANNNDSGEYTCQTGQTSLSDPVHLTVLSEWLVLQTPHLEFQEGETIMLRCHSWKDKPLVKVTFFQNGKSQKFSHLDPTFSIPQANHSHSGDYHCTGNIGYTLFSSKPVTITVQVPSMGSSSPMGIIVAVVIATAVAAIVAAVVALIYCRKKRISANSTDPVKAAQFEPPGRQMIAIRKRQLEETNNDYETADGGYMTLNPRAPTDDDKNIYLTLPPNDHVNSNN


What was measured:
[1] = biological target: T3, recombinant MS4A4A soluble polypeptide JS6; test: ELISA, biotin-antigen on streptavidin plate
T3 construct: also called JS6.His
Procedure: (§1) Anti-MS4A4A antibodies of the present disclosure were tested for their ability to bind to the different recombinant MS4A4A soluble polypeptides, as described in Example 2, as follows. Nucleic acid encoding the VH and VL domains of humanized anti-MS4A4A antibodies of the present disclosure were cloned into pcDNA3.4 vector which contains either the human IgG1 heavy chain constant domain or human kappa constant domain. The humanized anti-MS4A4A antibodies were expressed in Expi293 cells and were purified by Mab select antibody purification resin (GE Healthcare Life Science, cat#17519902) following the manufacture's protocol. ELISA was performed to measure binding of anti-MS4A4A antibodies of the present disclosure the recombinant MS4A4A soluble polypeptides. 1 μg/ml biotinylated antigens were preincubated on the streptavidin-coated ELISA plates (Thermo Scientific, cat#PI15120) for 1 hour. Plates were washed 3 times, followed by the addition of antibodies (1 μg/ml, 0.33 μg/ml, and 0.11 μg/ml antibodies. Plates were incubated at room temperature with shaking for 1 hr, washed 3 times, then 1/2500 dilution of HRP conjugates goat anti human kappa antibodies added (SigmaAldrich cat#. A7164-1ML).

[2] = biological target: T4, negative control polypeptide JS4; test: ELISA, biotin-antigen on streptavidin plate
T4 construct: negative control for JS1; also called JS4.His
Procedure: as §1

[3] = biological target: T5, negative control polypeptide JS10; test: ELISA, biotin-antigen on streptavidin plate
T5 construct: negative control for JS5 and JS6; also called JS10.His
Procedure: as §1

[4] = biological target: T6, recombinant MS4A4A soluble polypeptide JS5; test: ELISA, biotin-antigen on streptavidin plate
T6 construct: also called JS5.His
Procedure: as §1

[5] = biological target: T7, recombinant MS4A4A soluble polypeptide JS1; test: ELISA, biotin-antigen on streptavidin plate
T7 construct: also called JS1.His; loop grafted antigen
Procedure: as §1

[6] = biological target: T1, huMS4A4A-ECL2 free-peptide; test: peptide ELISA, murine antibody
Procedure: Coated plates were then blocked with ELISA diluent (PBS+0.5% BSA+0.05% Tween20) for 1-hour, washed 3×300 μL in PBST (PBS+0.05% Tween20, Thermo Cat#28352), and then the antibodies were added to the plate ([…]). After 30 mins incubation (room temperature, with shaking), the plates were washed 3×300 μL in PBST. […] After a final set of washes (3×300 μL in PBST), 50 μL of TMB substrate (BioFx Cat#TMBW-1000-01) was added and the reaction was then quenched after 5-10 mins with 50 μL of stop solution (BioFx Cat#BSTP-1000-01). The quenched reaction wells were detected for absorbance at […] with a BioTek Synergy Microplate Reader using GENS 2.04 software.

human MS4A4A [7] = biological target: T8, human MS4A4A (human, UniProt Q96JQ5 1-239); test: cell-based or functional assay
[8] = biological target: FcγRIIIa receptor (V158 variant) (UniProt P08637 17-254); test: cell-based or functional assay
FcγRIIIa receptor (V158 variant), sequence (P08637 other isoform, or with tags, fused parts or gaps mutant limits assumed): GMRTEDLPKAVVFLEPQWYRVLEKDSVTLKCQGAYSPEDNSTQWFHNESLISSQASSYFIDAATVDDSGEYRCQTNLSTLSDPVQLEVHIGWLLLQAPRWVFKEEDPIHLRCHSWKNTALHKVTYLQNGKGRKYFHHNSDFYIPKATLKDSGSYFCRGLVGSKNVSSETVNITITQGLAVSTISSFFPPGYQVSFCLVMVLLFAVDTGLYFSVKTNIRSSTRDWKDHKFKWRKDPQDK

human MS4A4A [9] = biological target: T8, human MS4A4A; test: cell-based or functional assay; remark: listed apart in the source
[10] = biological target: T2, FcγRIIa receptor (H131 variant); test: cell-based or functional assay
human MS4A4A [11] = biological target: T8, human MS4A4A; test: FACS, U937-huMS4A4A, 5 ug/ml
Summary of the method: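 U937 cells expressing human MS4A4A were viability-stained, then 2×10^4 cells/well were incubated with mouse hybridoma IgG or recombinant human IgG1 Fc chimera in PBS/2% FBS/1 mM EDTA. A secondary antibody was then applied on ice for 15 min. Binding was read by flow cytometry as median fluorescence intensity.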

[12] = biological target: T6, recombinant MS4A4A soluble polypeptide …; test: ELISA, 0.33 ug/ml antibody
Procedure: as §1

[13] = biological target: T6, recombinant MS4A4A soluble polypeptide …; test: ELISA, 1 ug/ml antibody
Summary of the method: (§2)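 Biotinylated antigen 1 μg/ml captured on streptavidin, 1 h; wash x3. Humanized IgG1/kappa Ab (Expi293) 1, 0.33, 0.11 μg/ml, 1 hr RT shaking; wash x3. HRP anti-human kappa 1/2500.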

[14] = biological target: T7, recombinant MS4A4A soluble polypeptide …; test: ELISA, 1 ug/ml antibody
Summary of the method: as §2

[15] = biological target: T6, recombinant MS4A4A soluble polypeptide …; test: ELISA, 0.11 ug/ml antibody
Procedure: as §1

human MS4A4A [16] = biological target: T8, human MS4A4A; test: FACS, U937-huMS4A4A, 5 ug/ml; remark: listed apart in the source
Procedure: Anti-MS4A4A antibodies tested were either mouse IgGs purified from hybridoma supernatant or human IgG1 Fc chimeras produced recombinantly in Expi293 cells. Affinity binding to cells was determined as follows. Briefly, cells were harvested, washed, and labeled with Aqua Live/Dead for viability discrimination. After a wash with PBS, 2×10\hat{ }4 cells were aliquoted per well in 96-well U-bottom plates and incubated with 50 μL of purified anti-MS4A4A antibody at various concentrations (3× dilutions starting at 10 μg/mL) in FACS buffer (PBS+2% FBS+1 mM EDTA). After this primary incubation, the supernatant was removed via centrifugation, washed 2× with 150 μL of ice-cold FACS buffer, and incubated with the appropriate secondary antibody on ice for 15 minutes. Following the secondary antibody incubation, the cells were again washed 2× with ice-cold FACS buffer and resuspended in a final volume of 200 μL of FACS buffer. Flow cytometry analysis was performed on a FACSCanto system (BD Biosciences). Binding data was expressed as Median Fluorescent Intensity (MFI).
These experiments were performed using anti-MS4A4A antibodies at a concentration of 5 μg/ml and were assayed for cell binding by flow cytometry.

Row | ELISA OD [1] | ELISA OD [2] | ELISA OD [3] | ELISA OD [4] | ELISA OD [5] | binding result [6] | EC50 of the increase of sTREM2, primary human macrophages (human MS4A4A [7]) | EC50 of the increase of mTREM2, primary human macrophages (human MS4A4A [9]) | MFI (human MS4A4A [11]) | Binder | other results
1 | – | – | – | – | – | – | 0.025 mg/L | 0.028 mg/L | – | anti-MS4A4A antibody 4A-313 NSLF huIgG1 (antibody) heavy: not shown light: EIVLTQSPATLSLSPGERATLSCRASESVDNYGVSRMNWYQQKPGQAPRLLIYGASNQGSGIPARFSGSGSGTDFTLTISSLEPEDFAVYYCQQSKEVPPTFGGGTKVEIKRTVAAPSVFIFPPSDEQLKSGTASVVCLLNNFYPREAKVQWKVDNALQSGNSQESVTEQDSKDSTYSLSSTLTLSKADYEKHKVYACEVTHQGLSSPVTKSFNRGEC | luminescence, ADCC reporter, 3.048316 ng/mL [8]: 324; luminescence, ADCC reporter, 9.144947 ng/mL [8]: 356; luminescence, ADCC reporter, 27.43484 ng/mL [8]: 347; luminescence, ADCC reporter, 82.30453 ng/mL [8]: 360; luminescence, ADCC reporter, 246.9136 ng/mL [8]: 332; luminescence, ADCC reporter, 740.7407 ng/mL [8]: 363; luminescence, ADCC reporter, 2,222.222 ng/mL [8]: 431; luminescence, ADCC reporter, 6,666.667 ng/mL [8]: 415; luminescence, ADCC reporter, 20,000 ng/mL [8]: 442; luminescence, ADCP reporter, 3.048316 ng/mL [10]: 42; luminescence, ADCP reporter, 9.144947 ng/mL [10]: 45; luminescence, ADCP reporter, 27.43484 ng/mL [10]: 39; luminescence, ADCP reporter, 82.30453 ng/mL [10]: 58; luminescence, ADCP reporter, 246.9136 ng/mL [10]: 51; luminescence, ADCP reporter, 740.7407 ng/mL [10]: 61; luminescence, ADCP reporter, 2,222.222 ng/mL [10]: 55; luminescence, ADCP reporter, 6,666.667 ng/mL [10]: 227; luminescence, ADCP reporter, 20,000 ng/mL [10]: 250
2 | – | – | – | – | – | – | 0.069 mg/L | 0.039 mg/L | – | anti-MS4A4A antibody 4A-450 NSLF huIgG1 (antibody, V domains shown) VH: QVQLVQSGSELKKPGASVKVSCKASGYAFTSYGLSWVRQAPGQGLEWMGWINTYSGVPTYAQGFTGRFVFSLDTSVSTAYLQISSLKAEDTAVYYCARTMADYWGQGTLVTVSS VL: DVVMTQSPLSLPVTLGQPASISCKSSRSLLYSAGKTYLSWFQQRPGQSPRRLIYLVSKLDSGVPDRFSGSGSGTDFTLKISRVEAEDVGVYYCWQGIDFHQTFGGGTKVEIKR | –

The next lines start with the binder.

Row | Binder | ELISA OD [1] | ELISA OD [2] | ELISA OD [3] | ELISA OD [4] | ELISA OD [5] | binding result [6] | EC50 of the increase of sTREM2, primary human macrophages (human MS4A4A [7]) | EC50 of the increase of mTREM2, primary human macrophages (human MS4A4A [9]) | MFI (human MS4A4A [11]) | other results
3 | anti-MS4A4A antibody 4A-214 (antibody, V domains shown, murine; mFc = murine Fc; also called 4A-214.mFc) VH: EVKLEESGGGLVQPGRSMKLSCVASGFTFSNYWMNWVRQSPEKGLEWVAEIRLKSNNYATHYAESVKGRFTISRDDSKSSVYLQMNNLRAEDTGIYYCSSMIIVDYWGQGTTVTVSS VL: DIVLTQSPASLTVSLGQRATISCRASQSVSSSTYSYLHWYQQRPGQPPKLLIKYASNLESGVPARFSGSGSGTVFTLNIHPVEEEDTATYYCQHSWEIPLTFGAGTKLEMK | 1.71 | 0.11 | 0.086 | 1.62 | 1.74 | binds | – | – | – | –
4 | anti-MS4A4A antibody 4A-25 (antibody, V domains shown, murine parental; mFc = murine Fc; also called 4A-25.mFc) VH: QVTLKESGPGILQPSQTLSLTCSFSGFSLRTSDMGVGWVRQPSGEGLEWLADIWWDDNKYYNPSLKSRLTISKDTSSNQVFLKITSVDTADTATYYCARRANYGNLFDYWGQGTAVTVSS VL: DIVMTQSLKFMSTSVGDRVSITCKASQNVRSAVAWYQQKPGQSPKVLIYWASNRHTGVPDRFTGSGSGTDFTLTISNVQSEDLADYFCLQHWNYLTFGSGTKLEIK | 1.26 | 0.091 | 0.063 | 1.12 | 1.38 | binds | – | – | 648 | –
5 | anti-MS4A4A antibody 4A-202 (antibody, V domains shown, murine parental; tested as mouse IgG or as human IgG1 Fc chimera (hFc), told under assay) VH: QVQLQQSGAELARPGASVKLSCKASGYTFTNYWMQWVKQRPGQGLEWIGATHPGHGDTRYTQKFKGKATLSADKSSSTAYMQLSNLASEDSAVYYCAREEVYYGFRSYWYFDVWGRGTLVTVSS VL: not shown | 1.23 | 0.111 | 0.084 | 1.22 | 1.16 | binds | – | – | 216 | ELISA OD [12]: 0.111; ELISA OD [13]: 0.188; OD450 [14]: 0.141; ELISA OD [15]: 0.079; MFI (human MS4A4A [16]): 31700
